According to publication PMC2275104 (Nucleic Acids Research, 2008):

B1: Methanothermobacter thermautotrophicus MCM protein, wild-type (enzyme, UniProt O27798 1-666, looked up)
chain: MMKTVDKSKTLTKFEEFFSLQDYKDRVFEAIEKYPNVRSIEVDYLDLEMFDPDLADLLIEKPDDVIRAAQQAIRNIDRLRKNVDLNIRFSGISNVIPLRELRSKFIGKFVAVDGIVRKTDEIRPRIVKAVFECRGCMRHHAVTQSTNMITEPSLCSECGGRSFRLLQDESEFLDTQTLKLQEPLENLSGGEQPRQITVVLEDDLVDTLTPGDIVRVTGTLRTVRDERTKRFKNFIYGNYTEFLEQEFEELQISEEDEEKIKELAGDPNIYEKIIRSTAPSIHGYREVKEAIALQLFGGTGKELDDKTRLRGDIHILIVGDPGIGKSQMLKYVSKLAPRGIYTSGKGTSGVGLTAAAVRDEFGGWSLEAGALVLGDKGNVCVDELDKMREEDRSAIHEALEQQTISIAKAGIMATLNSRCSVLAAANPKFGRFDSYKSIAEQIDLPSTILSRFDLIFVVEDKPDEEKDRELARHILKTHKEDHMPFEIDPELLRKYIAYARKNVRPVLTDEAMQVLEDFYVSMRASAADEDSPVPITARQLEALVRLSEASAKIKLKEHVEAEDARKAIKLSQACLKQVGYDPETGKIDIDKVEGRTPKSERDKFRLLLELIKEYEDDYGGRAPTNILITEMMDRYNVSEEKVEELIRILKDKGAIFEPARGYLKIV
B2: Methanothermobacter thermautotrophicus MCM protein, L184A mutant (enzyme, UniProt O27798 1-666, looked up)
chain: MMKTVDKSKTLTKFEEFFSLQDYKDRVFEAIEKYPNVRSIEVDYLDLEMFDPDLADLLIEKPDDVIRAAQQAIRNIDRLRKNVDLNIRFSGISNVIPLRELRSKFIGKFVAVDGIVRKTDEIRPRIVKAVFECRGCMRHHAVTQSTNMITEPSLCSECGGRSFRLLQDESEFLDTQTLKLQEPAENLSGGEQPRQITVVLEDDLVDTLTPGDIVRVTGTLRTVRDERTKRFKNFIYGNYTEFLEQEFEELQISEEDEEKIKELAGDPNIYEKIIRSTAPSIHGYREVKEAIALQLFGGTGKELDDKTRLRGDIHILIVGDPGIGKSQMLKYVSKLAPRGIYTSGKGTSGVGLTAAAVRDEFGGWSLEAGALVLGDKGNVCVDELDKMREEDRSAIHEALEQQTISIAKAGIMATLNSRCSVLAAANPKFGRFDSYKSIAEQIDLPSTILSRFDLIFVVEDKPDEEKDRELARHILKTHKEDHMPFEIDPELLRKYIAYARKNVRPVLTDEAMQVLEDFYVSMRASAADEDSPVPITARQLEALVRLSEASAKIKLKEHVEAEDARKAIKLSQACLKQVGYDPETGKIDIDKVEGRTPKSERDKFRLLLELIKEYEDDYGGRAPTNILITEMMDRYNVSEEKVEELIRILKDKGAIFEPARGYLKIV
B3: Methanothermobacter thermautotrophicus MCM protein, G190A mutant (enzyme, UniProt O27798 1-666, looked up)
chain: MMKTVDKSKTLTKFEEFFSLQDYKDRVFEAIEKYPNVRSIEVDYLDLEMFDPDLADLLIEKPDDVIRAAQQAIRNIDRLRKNVDLNIRFSGISNVIPLRELRSKFIGKFVAVDGIVRKTDEIRPRIVKAVFECRGCMRHHAVTQSTNMITEPSLCSECGGRSFRLLQDESEFLDTQTLKLQEPLENLSGAEQPRQITVVLEDDLVDTLTPGDIVRVTGTLRTVRDERTKRFKNFIYGNYTEFLEQEFEELQISEEDEEKIKELAGDPNIYEKIIRSTAPSIHGYREVKEAIALQLFGGTGKELDDKTRLRGDIHILIVGDPGIGKSQMLKYVSKLAPRGIYTSGKGTSGVGLTAAAVRDEFGGWSLEAGALVLGDKGNVCVDELDKMREEDRSAIHEALEQQTISIAKAGIMATLNSRCSVLAAANPKFGRFDSYKSIAEQIDLPSTILSRFDLIFVVEDKPDEEKDRELARHILKTHKEDHMPFEIDPELLRKYIAYARKNVRPVLTDEAMQVLEDFYVSMRASAADEDSPVPITARQLEALVRLSEASAKIKLKEHVEAEDARKAIKLSQACLKQVGYDPETGKIDIDKVEGRTPKSERDKFRLLLELIKEYEDDYGGRAPTNILITEMMDRYNVSEEKVEELIRILKDKGAIFEPARGYLKIV
B4: Methanothermobacter thermautotrophicus MCM protein, P193G mutant (enzyme, UniProt O27798 1-666, looked up)
chain: MMKTVDKSKTLTKFEEFFSLQDYKDRVFEAIEKYPNVRSIEVDYLDLEMFDPDLADLLIEKPDDVIRAAQQAIRNIDRLRKNVDLNIRFSGISNVIPLRELRSKFIGKFVAVDGIVRKTDEIRPRIVKAVFECRGCMRHHAVTQSTNMITEPSLCSECGGRSFRLLQDESEFLDTQTLKLQEPLENLSGGEQGRQITVVLEDDLVDTLTPGDIVRVTGTLRTVRDERTKRFKNFIYGNYTEFLEQEFEELQISEEDEEKIKELAGDPNIYEKIIRSTAPSIHGYREVKEAIALQLFGGTGKELDDKTRLRGDIHILIVGDPGIGKSQMLKYVSKLAPRGIYTSGKGTSGVGLTAAAVRDEFGGWSLEAGALVLGDKGNVCVDELDKMREEDRSAIHEALEQQTISIAKAGIMATLNSRCSVLAAANPKFGRFDSYKSIAEQIDLPSTILSRFDLIFVVEDKPDEEKDRELARHILKTHKEDHMPFEIDPELLRKYIAYARKNVRPVLTDEAMQVLEDFYVSMRASAADEDSPVPITARQLEALVRLSEASAKIKLKEHVEAEDARKAIKLSQACLKQVGYDPETGKIDIDKVEGRTPKSERDKFRLLLELIKEYEDDYGGRAPTNILITEMMDRYNVSEEKVEELIRILKDKGAIFEPARGYLKIV
B5: Methanothermobacter thermautotrophicus MCM protein, E185R mutant (enzyme, UniProt O27798 1-666, looked up)
chain: MMKTVDKSKTLTKFEEFFSLQDYKDRVFEAIEKYPNVRSIEVDYLDLEMFDPDLADLLIEKPDDVIRAAQQAIRNIDRLRKNVDLNIRFSGISNVIPLRELRSKFIGKFVAVDGIVRKTDEIRPRIVKAVFECRGCMRHHAVTQSTNMITEPSLCSECGGRSFRLLQDESEFLDTQTLKLQEPLRNLSGGEQPRQITVVLEDDLVDTLTPGDIVRVTGTLRTVRDERTKRFKNFIYGNYTEFLEQEFEELQISEEDEEKIKELAGDPNIYEKIIRSTAPSIHGYREVKEAIALQLFGGTGKELDDKTRLRGDIHILIVGDPGIGKSQMLKYVSKLAPRGIYTSGKGTSGVGLTAAAVRDEFGGWSLEAGALVLGDKGNVCVDELDKMREEDRSAIHEALEQQTISIAKAGIMATLNSRCSVLAAANPKFGRFDSYKSIAEQIDLPSTILSRFDLIFVVEDKPDEEKDRELARHILKTHKEDHMPFEIDPELLRKYIAYARKNVRPVLTDEAMQVLEDFYVSMRASAADEDSPVPITARQLEALVRLSEASAKIKLKEHVEAEDARKAIKLSQACLKQVGYDPETGKIDIDKVEGRTPKSERDKFRLLLELIKEYEDDYGGRAPTNILITEMMDRYNVSEEKVEELIRILKDKGAIFEPARGYLKIV
B6: Methanothermobacter thermautotrophicus MCM protein, Q181A mutant (enzyme, UniProt O27798 1-666, looked up)
chain: MMKTVDKSKTLTKFEEFFSLQDYKDRVFEAIEKYPNVRSIEVDYLDLEMFDPDLADLLIEKPDDVIRAAQQAIRNIDRLRKNVDLNIRFSGISNVIPLRELRSKFIGKFVAVDGIVRKTDEIRPRIVKAVFECRGCMRHHAVTQSTNMITEPSLCSECGGRSFRLLQDESEFLDTQTLKLAEPLENLSGGEQPRQITVVLEDDLVDTLTPGDIVRVTGTLRTVRDERTKRFKNFIYGNYTEFLEQEFEELQISEEDEEKIKELAGDPNIYEKIIRSTAPSIHGYREVKEAIALQLFGGTGKELDDKTRLRGDIHILIVGDPGIGKSQMLKYVSKLAPRGIYTSGKGTSGVGLTAAAVRDEFGGWSLEAGALVLGDKGNVCVDELDKMREEDRSAIHEALEQQTISIAKAGIMATLNSRCSVLAAANPKFGRFDSYKSIAEQIDLPSTILSRFDLIFVVEDKPDEEKDRELARHILKTHKEDHMPFEIDPELLRKYIAYARKNVRPVLTDEAMQVLEDFYVSMRASAADEDSPVPITARQLEALVRLSEASAKIKLKEHVEAEDARKAIKLSQACLKQVGYDPETGKIDIDKVEGRTPKSERDKFRLLLELIKEYEDDYGGRAPTNILITEMMDRYNVSEEKVEELIRILKDKGAIFEPARGYLKIV
B7: Methanothermobacter thermautotrophicus MCM protein, E182R mutant (enzyme, UniProt O27798 1-666, looked up)
chain: MMKTVDKSKTLTKFEEFFSLQDYKDRVFEAIEKYPNVRSIEVDYLDLEMFDPDLADLLIEKPDDVIRAAQQAIRNIDRLRKNVDLNIRFSGISNVIPLRELRSKFIGKFVAVDGIVRKTDEIRPRIVKAVFECRGCMRHHAVTQSTNMITEPSLCSECGGRSFRLLQDESEFLDTQTLKLQRPLENLSGGEQPRQITVVLEDDLVDTLTPGDIVRVTGTLRTVRDERTKRFKNFIYGNYTEFLEQEFEELQISEEDEEKIKELAGDPNIYEKIIRSTAPSIHGYREVKEAIALQLFGGTGKELDDKTRLRGDIHILIVGDPGIGKSQMLKYVSKLAPRGIYTSGKGTSGVGLTAAAVRDEFGGWSLEAGALVLGDKGNVCVDELDKMREEDRSAIHEALEQQTISIAKAGIMATLNSRCSVLAAANPKFGRFDSYKSIAEQIDLPSTILSRFDLIFVVEDKPDEEKDRELARHILKTHKEDHMPFEIDPELLRKYIAYARKNVRPVLTDEAMQVLEDFYVSMRASAADEDSPVPITARQLEALVRLSEASAKIKLKEHVEAEDARKAIKLSQACLKQVGYDPETGKIDIDKVEGRTPKSERDKFRLLLELIKEYEDDYGGRAPTNILITEMMDRYNVSEEKVEELIRILKDKGAIFEPARGYLKIV

Molecular target: the molecule itself
Assay: SEC

Stoichiometry N, 12:
B1
B2
B3
B4
B5
B6
B7
